Laboratory results as given in publication PMC5003356.

Tests used:
P54nrb-HIS = molecular target: T1, P54nrb-HIS (UniProt Q15233); test: competition FP; conditions: 3-10-3 cEt gap-mer; BRET: 1X binding buffer (0.1 M potassium acetate, 20 mM Tris pH 7.5, 1 mM EDTA, 0.01% NP-40), room temperature, 15 min; FP in the same buffer; c-Jun in OptiMEM …
T1 sequence: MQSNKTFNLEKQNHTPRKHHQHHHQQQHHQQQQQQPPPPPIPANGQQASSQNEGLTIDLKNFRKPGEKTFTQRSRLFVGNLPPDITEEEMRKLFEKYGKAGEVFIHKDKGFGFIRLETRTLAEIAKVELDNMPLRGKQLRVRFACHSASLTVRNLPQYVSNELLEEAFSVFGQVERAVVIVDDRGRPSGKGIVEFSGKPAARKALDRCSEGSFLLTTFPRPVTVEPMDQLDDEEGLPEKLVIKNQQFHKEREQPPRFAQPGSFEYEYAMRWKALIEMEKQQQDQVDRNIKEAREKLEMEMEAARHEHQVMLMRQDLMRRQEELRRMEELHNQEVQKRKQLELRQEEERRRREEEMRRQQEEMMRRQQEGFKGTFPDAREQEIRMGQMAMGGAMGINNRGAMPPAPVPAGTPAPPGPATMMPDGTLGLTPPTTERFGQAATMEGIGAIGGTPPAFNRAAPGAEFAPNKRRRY

[1] = molecular target: T2, NLuc-La dR1/R2 internal_change (UniProt P05455); test: BRET; conditions: PS; 5-10-5 (S)-cEt gap-mer; BRET: 1X binding buffer (0.1 M potassium acetate, 20 mM Tris pH 7.5, 1 mM EDTA, 0.01% NP-40), room temperature, 15 min; FP in the same buffer; c-Jun in OptiMEM …
T2 sequence: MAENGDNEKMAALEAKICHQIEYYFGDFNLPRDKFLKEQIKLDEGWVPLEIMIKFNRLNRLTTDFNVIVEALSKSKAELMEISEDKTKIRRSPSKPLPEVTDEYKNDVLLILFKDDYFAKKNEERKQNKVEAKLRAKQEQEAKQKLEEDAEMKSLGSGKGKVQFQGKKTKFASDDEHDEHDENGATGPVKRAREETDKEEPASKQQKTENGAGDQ

Row | Sequence | Kd (P54nrb-HIS) | binding signal (fold lower affinity than full length) [1]
1 | TGAGAAGATCTCCCGG [661103] | 33.6 nM | 
2 | AACATGTCTGCCAGGG [660956] | 33 nM | 
3 | GGGAGGAGGACAGCTC [660908] | 4.6 nM | 
4 | CCCTCCCTCCCGCTAG [661121] | 19.5 nM | 
5 | CCACTGCGCAGGCCAG [660935] | 337 nM | 
6 | ACCCTGCCACGATGTA [660992] | 95.1 nM | 
7 | CTGCTAGCCTCTGGATTTGA [766636 cEt gap-mer] |  | 50
8 | TCCACAGAGCGGACTG [660965] | 310 nM | 
9 | CCAGCGGGTGGACTGT [660923] | 38.3 nM | 
10 | TCAGTCATGGTATAAA [661115] | 86.9 nM | 
11 | CTTCTAGCCACTGGCT [661010] | 326 nM | 
12 | GTTAAGAAGGCTGTCC [661073] | 260 nM | 
13 | CTGGGAACTGGTCACC [660899] | 119 nM | 
